Tests used:
[1] = test system: MS2 coat protein; experiment: apparent KD of MS2 coat protein, switch OFF state (with FMN for OFF switches, without FMN for ON switches); designed switch direction (-1 OFF switch, 1 ON switch): -1; higher = weaker reporter binding; details: FMN input: 0 or 200 uM; Eterna round: R93 (includes R88 designs)
How it was run: (§1)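 Designed RNA switches were transcribed on-chip from Illumina sequencing clusters. SNAP-549-labelled MS2 coat protein was titrated onto them in twofold steps from 0.7 or 1.5 nM to 3 µM in 100 mM Tris-HCl pH 7.5, 80 mM KCl, 4 mM MgCl2, either without or with constant ligand. Apparent KD reflects the per-design median of normalised cluster binding-curve fits.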

[2] = test system: MS2 coat protein; experiment: apparent KD of MS2 coat protein, switch ON state; designed switch direction (-1 OFF switch, 1 ON switch): -1; higher = weaker reporter binding; details: FMN input: 0 or 200 uM; Eterna round: R93 (includes R88 designs)
How it was run: as §1

[3] = test system: MS2 coat protein; experiment: apparent KD of MS2 coat protein; designed switch direction (-1 OFF switch, 1 ON switch): 1; higher = weaker reporter binding
How it was run: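 The apparent KD reported per design is the median over clusters of curve fits to normalised cluster fluorescence. The RNA switches were transcribed on Illumina chips by stalled E. coli RNA polymerase. SNAP-549-labelled MS2 coat protein was titrated from 0.7 or 1.5 nM, doubling up to 3 µM, in Tris-HCl pH 7.5 buffer containing KCl, MgCl2, BSA, DTT, tRNA and Tween-20, with no input, 200 uM small-molecule ligand, or an oligonucleotide input.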

[4] = input ligand: microRNA oligo, concentration not stated

| Sequence | apparent KD of MS2 coat protein [1] | apparent KD of MS2 coat protein [2] | other results |
| --- | --- | --- | --- |
| CACGUACAUGAGGAUCACCCAUGUUAGGAUAUGCCGAAAAAAAAAAAAAAAAAAAUCAGCAGAAGGAACGAAAC [Bilbo Confounded 19 - Jieux - Exclusion 1] | 36 nM | 40.2 nM | – |
| AAAAGACAUGAGGAUCACCCAUGUGAGGAUAUGACGUAAAGAAAGAAAGAAGAAAUCGUCAGAAGGCACACCUA [Mat - Exclusion 1 - Eli mod - D68] | 63.5 nM | 31.6 nM | – |
| AACAGGUCAGGAUAUGUGGAAAAAAUAAAAAAAAAUAAAACACAGAAGGGACAUGAGGAUCACCCAUGUAAAUA [Mat - Exclusion 4 - Mayanna - D142] | 59.2 nM | 68.7 nM | – |
| AAAAAACAUGAGGAUCACCCAUGUUAGGAUAUCGUGCAGAAAAAAAAAAAAAACUGCACGAGAAGGAACAAGGA [Brourd - Exclusion 1 - Sub 2] | 44.9 nM | 29.1 nM | – |
| AAUAACAGAGGAUAUACUAAAGAAAUGAAAAGAAAUAAAGAACAUGAGGAUCACCCAUGUAGAAGGCUGAAUAA [Sheneh] | 21.5 nM | 16.9 nM | – |
| AGGAUGUCAGGAUAUGCGUAAAGAAUAAAACAAAUAACAACGCAGAAGGGACAUGAGGAUCACCCAUGUUAAGA [May 45] | 86 nM | 42.3 nM | – |
| AAAAAGUUAGGAUAUACAUGAGGAUCACCCAUGUACAUAUAUGGAGAAUAUAGCAGUAGUAGAAGGGACAAAAA [EX2 Malc#13] | 34.8 nM | 26.9 nM | – |
| AAAACGUGAGGAUAUACAUGAGGAUCACCCAUGUGAAACAGGAAAAACUGAAAGAAAAGUAGAAGGCACGAAAA [Tweaking Eli] | 44.4 nM | 29 nM | – |
| AAAACUGGAGGAUAUACAUGAGGAUCACCCAUGUGUGGAUGAGCUGAAACGGCAUCACGUAGAAGGCCACAAAA [Gilly Gone Silly 40 - Jieux - Exclusion 3] | 45.2 nM | 35.3 nM | – |
| GAAAUACGAGGAUAUACAUGAGGAUCACCCAUGUCAAAAAAUGACUACACAAAAGAAAGUAGAAGGCGUAAAAG [Mat - Exclusion 3 - Mayanna mod - D128] | 38.4 nM | 28.6 nM | – |
| GUCCGACAUGAGGAUCACCCAUGUAAGGAUAUGUAUCCUUCGGCCCGAACCAGAGGAAGCAGAAGGUACAGGGA [Oneserqu] | 20.9 nM | 24.8 nM | – |
| AGGAAACAUGAGGAUCACCCAUGUCAGGAUAUUCAAAAGAAAAGAAAAGAAAGAAGAAGAAGAAGGGACAAGAA [Wazner] | 44.5 nM | 36.7 nM | – |
| AUAAAACAUGAGGAUCACCCAUGUGAGGAUAUAGGAAACAAACAAACAAACAAACAAACUAGAAGGCACAAUAA [Amethyst 10] | 16.7 nM | 13 nM | – |
| AAUAAGUGAGGAUAUGCAAAUAAUAAAUAAAAUAAAAUAAAGCAGAAGGCACAUGAGGAUCACCCAUGUAAAUA [JR_Exc004_Sub001] | 29.5 nM | 34 nM | – |
| AAAAAACAUGAGGAUCACCCAUGUAAGGAUAUCGAAAAGAAAAGAAAAGAAAGAAGAACGAGAAGGUACAAGAA [Neferirkare Kakai] | 16 nM | 16.6 nM | – |
| AGUGAGUCAGGAUAUGCGUGAAGAAUAAAAGAAAUAACAACGCAGAAGGGACAUGAGGAUCACCCAUGUACACA [May 56] | 20.7 nM | 23.5 nM | – |
| AUAAAUCGAGGAUAUACAUGAGGAUCACCCAUGUAAAUAAAUAAAUAAAACUCCACAAGUAGAAGGCGAAAUAA [JR_Exc003_Sub020] | 20.8 nM | 23.8 nM | – |
| CAAAGGUGAGGAUAUACAGGAAUAUGACGAAAGUCAUAAAAACAUGAGGAUCACCCAUGUAGAAGGCACCACAA [E2 64% 3] | 57.3 nM | 37.4 nM | – |
| AAAGGGUCAGGAUAUGUACGAACAACAAAACAAAUAACGGUACAGAAGGGACAUGAGGAUCACCCAUGUAUAAA [May 73] | 64.1 nM | 51.9 nM | – |
| AAGAAGGAAGGAUAUACAUGAGGAUCACCCAUGUAAAAGAAAGAAAAGGGAAAGAAAAGUAGAAGGUCCAAGAA [Djeserkheperure-setpenre Horemheb] | 41.6 nM | 30.4 nM | – |

| Sequence | apparent KD of MS2 coat protein [1] | apparent KD of MS2 coat protein [2] | other results |
| --- | --- | --- | --- |
| AAGAAGGGAGGAUAUACAUAAAAGAAAGAAAAGAAAAGAAAACAUGAGGAUCACCCAUGUAGAAGGCCCAAGAA [EteRNA is fun!] | 29.3 nM | 28.7 nM | – |
| AACAGUACAGGAUAUACAUGAGGAUCACCCAUGUGAAAAGAAAGUGGCGUACCACAAAGUAGAAGGGUACUGAA [Mat - Exclusion 3 - JL mod - D29] | 135 nM | 25.3 nM | – |
| AAAAGCACAGGAUAUACAAAAAAAUGACGAAAGUCAUAGGGACAUGAGGAUCACCCAUGUAGAAGGGUGCAAAA [Mod of Meechl's... 64% 4] | 440 nM | 197 nM | – |
| GGUUGGCGAGGAUAUACAUGAGGAUCACCCAUGUGAGAGAAAAAAGUGAGGAGGGAAAGUAGAAGGCGCUGACG [salish99-ex3-16] | 41.9 nM | 27.3 nM | – |
| AAUAAACAUGAGGAUCACCCAUGUAAGGAUAUGCGAACAAUAAGAAGACAAUAAUAAAGCAGAAGGUACAAGAG [Ex1 sub 1] | 50 nM | 27 nM | – |
| ACCAGUACAGGAUAUACAUGAGGAUCACCCAUGUGAGAAUUAAGUGGCGUACCACAAAGUAGAAGGGUACUGGA [Mat - Exclusion 3 - JL mod - D11] | 273 nM | 43.3 nM | – |
| AACAGGUCAGGAUAUGUGUAAAAAAUAAAAAAAAUAUAAACACAGAAGGGACAUGAGGAUCACCCAUGUUAACA [May 26] | 35.7 nM | 31.5 nM | – |
| AAAAAGGGAGGAUAUACAUGAGGAUCACCCAUGUAAAACGCGCCAACAAAGAAACAAAGUAGAAGGCCCAAAAA [Default title] | 14.5 nM | 17.3 nM | – |
| ACUUAGACAGGAUAUACGUGAGUGGAAAAAGUGUAUCCACUACAUGAGGAUCACCCAUGUAGAAGGGUCUAAGA [Ex2 Design 182: Random 7] | 19.7 nM | 18.6 nM | – |
| AAAAAACAUGAGGAUCACCCAUGUAAGGAUAUGCAAGAAAGAAGAAAGAAAAGAAAAAGCAGAAGGUACAAAAA [Amethyst 71] | 34.4 nM | 32.1 nM | – |
| AAAAAACAUGAGGAUCACCCAUGUCAGGAUAUCUGUAAAAAUUAAAAAAAUAAAAUACAGAGAAGGGACAUAAA [Ex1: 606] | 100 nM | 44 nM | – |
| GAAAAGAAAGGAUAUAAAACAGAGGAUAUACAUAAAUAAAAACAUGAGGAUCACCCAUGUAGAAGGCUGAAAAG [Meechl Ex2 R2 m2] | 20.5 nM | 33.2 nM | – |
| GAAAAACAUGAGGAUCACCCAUGUAAGGAUAUGCUGAAAAAACACUGGAAACAGUGCAGCAGAAGGUACAAAAG [Mat - Exclusion 1 - Eli mod - D100] | 73.3 nM | 20.3 nM | – |
| AAAUGCUGAGGAUAUACAUGAGGAUCACCCAUGUGAAAUAAAAAAUGUGUGUAAGCGUGUAGAAGGCAGCAUAA [Exclusion 3.12 (FMN+ favored)] | 25.8 nM | 57.1 nM | – |
| UUGAAGAAUUAAGGAUAUUGAUUACAUAUGUUUAACAUGAGGAUCACCCAUGUGGGUUGCGGUAUCGAGAAGGUAAAAUAAUAG [Mat - same State NG 2 - JL mod - D82] (Eterna round: R96, puzzle: Same State NG 2) | – | – | apparent KD of MS2 coat protein ([3]; input ligand: FMN 200 uM): 181 nM; apparent KD of MS2 coat protein [3, 4]: 231 nM; apparent KD of MS2 coat protein ([3]; input ligand: none): 258 nM |
| ACAUGAGAGUGAGGAUAUGGUGUACCUACAUGUGACAUGAGGAUCACCCAUGUGGUAAGUAUGACUCAGAAGGCACAGAUAUGU [Equivalance 77 - Jieux - Same State NG 2] (Eterna round: R96, puzzle: Same State NG 2) | – | – | apparent KD of MS2 coat protein ([3]; input ligand: FMN 200 uM): 16.2 nM; apparent KD of MS2 coat protein [3, 4]: 59.4 nM; apparent KD of MS2 coat protein ([3]; input ligand: none): 103 nM |
| ACAUGAGACGGAGGAUAUGUUGUACCUACAUGUGACAUGAGGAUCACCCAUGUGGUAAGUAUGAUACAGAAGGCCGAGAUAUGU [Equivalance 58 - Jieux - Same State NG 2] (Eterna round: R96, puzzle: Same State NG 2) | – | – | apparent KD of MS2 coat protein ([3]; input ligand: FMN 200 uM): 13.6 nM; apparent KD of MS2 coat protein [3, 4]: 13.2 nM; apparent KD of MS2 coat protein ([3]; input ligand: none): 18.9 nM |
| AGAUCAUGACGAGGAUAUGCGACAUGAGGAUCACCCAUGUAUGUUGCAGGACGCGUACGUCCAAUGUAGAAGGCGUCGUGGUCA [JL SSNG2 1.05] (Eterna round: R96, puzzle: Same State NG 2) | – | – | apparent KD of MS2 coat protein ([3]; input ligand: FMN 200 uM): 22.8 nM; apparent KD of MS2 coat protein [3, 4]: 65.1 nM; apparent KD of MS2 coat protein ([3]; input ligand: none): 88.7 nM |
| GAAAAGGCAACGCAGGAUAUGAAAGGUGAAACAUGAGGAUCACCCAUGUGCUACCUUCCGAUAAAUCAGAAGGGCGACGCCUAAA [Usbemaus] (puzzle: Same State 2) | – | – | apparent KD of MS2 coat protein ([3]; Eterna round: R95, input ligand: FMN 200 uM): 9.33 nM; apparent KD of MS2 coat protein ([3]; Eterna round: R95, input ligand: microRNA oligo, concentration not stated): 8.96 nM; apparent KD of MS2 coat protein ([3]; Eterna round: R95, input ligand: none): 11.1 nM |

Reference: the supplement of paper PMC9170038
